Test results reported in patent US20230212319A1, “NOVEL ANTIGEN BINDING DOMAINS AND SYNTHETIC ANTIGEN RECEPTORS INCORPORATING THE SAME” (University of Southern California, priority 2020, published 2023).

B1: 22201 (protein)
chain: MALPVTALLLPLALLLHAARPACEVQLLESGGGLIQPGGSLRLSCAASGFTFSSHAMTWVRQAPGKGLEWVSAISGSGDYTHYADSVKGRFTISRDNSKNTVYLQMNSLRAEDSAVYYCAKDEDGGSLLGHRGQGTLVTVSSGTGGGGSGGGGSGGGGSEFAGHLEQPQISSTKTLSKTARLECVVSGITISATSVYWYRERPGEVIQFLVSISYDGTVRKESGIPSGKFEVDRIPETSTSTLTIHNVEKQDIATYYCALWEAQQELGKKIKVFGPGTKLIITDKQLDKQLDADVSPKPTIFLPSIAETKLQKAGTYLCLLEKFFPDVIKIHWQEKKSNTILGSQEGNTMKTNDTYMKFSWLTVPEKSLDKEHRCIVRHENNKNGVDQEIIFPPIKTDVITMDPKDNCSKDANDTLLLQLTNTSAYYMYLLLLLKSVVYFAIITCCLLRRTAFCCNGEKSRAKRSGSGATNFSLLKQAGDVEENPGPTSATMDWIWRILFLVGAATGAHSGPQVQLQESGGGLAQAGGSLRLSCAASGRTFSMGWFRQAPGKEREFVAAITYSGGSPYYASSVRGRFTISRDNAKNTVYLQMNSLKPEDTAVYYCAANPTYGSDWNAENWGQGTQVTVSSGSGGGGSGGGGSGGGGSFEAIELVPEHQTVPVSIGVPATLRCSMKGEAIGNYYINWYRKTQGNTMTFIYREKDIYGPGFKDNFQGDIDIAKNLAVLKILAPSERDEGSYYCACDTLGMGGEYTDKLIFGKGTRVTVEPRSQPHTKPSVFVMKNGTNVACLVKEFYPKDIRINLVSSKKITEFDPAIVISPSGKYNAVKLGKYEDSNSVTCSVQHDNKTVHSTDFEVKTDSTDHVKPKETENTKQPSKSCHKPKAIVHTEKVNMMSLTVLGLRMLFAKTVAVNFLLTAKLFFLRAKRSGSGVKQTLNFDLLKLAGDVESNPGPSRAHMTEYKPTVRLATRDDVPRAVRTLAAAFADYPATRHTVDPDRHIERVTELQELFLTRVGLDIGKVWVADDGAAVAVWTTPESVEAGAVFAEIGPRMAELSGSRLAAQQQMEGLLAPHRPKEPAWFLATVGVSPDHQGKGLGSAVVLPGVEAAERAGVPAFLETSAPRNLPFYERLGFTVTADVEVPEGPRTWCMTRKPGA
B2: 22161 (protein)
chain: MALPVTALLLPLALLLHAARPACEVQLLESGGGLIQPGGSLRLSCAASGFTFSSHAMTWVRQAPGKGLEWVSAISGSGDYTHYADSVKGRFTISRDNSKNTVYLQMNSLRAEDSAVYYCAKDEDGGSLLGHRGQGTLVTVSSGTGGGGSGGGGSGGGGSEFDIQMTQSPSSLSASVGDRVTITCKASDHINNWLAWYQQKPGQAPKLLIYGATTLETGVPSRFSGSGSGTDYTLTISSLQPEDFATYYCQQSWNTPWTFGQGTKLEIKRLEDLKNVFPPEVAVFEPSEAEISHTQKATLVCLATGFYPDHVELSWWVNGKEVHSGVCTDPQPLKEQPALNDSRYCLSSRLRVSATFWQNPRNHFRCQVQFYGLSENDEWTQDRAKPVTQIVSAEAWGRADCGFTSESYQQGVLSATILYEILLGKATLYAVLVSALVLMAMVKRKDSRGRAKRSGSGATNFSLLKQAGDVEENPGPTSATMDWIWRILFLVGAATGAHSGPEVQLVESGGGLVQAGGSLRLSCAASGRTFSMGWFRQAPGKEREFVAAITYSGGSPYYADSVKGRFTISRDNAKNTVYLQMNSLKPEDTAVYYCAANPTYGSDWNAENWGQGTQVTVSSGSGGGGSGGGGSGGGGSFEQVQLQQPGAELVKPGASVKMSCKASGYAFSSYWINWMKQKPGQGLEWIGQIYPGDGDTNYNGKFKGRATLTADTSSSTAYMQLSSLTSEDSAVYFCARSITTVVGCAMDYWGQGTSVTVSSTRIQNPDPAVYQLRDSKSSDKSVCLFTDFDSQTNVSQSKDSDVYITDKCVLDMRSMDFKSNSAVAWSNKSDFACANAFNNSIIPEDTFFPSPESSCDVKLVEKSFETDTNLNFQNLSVIGFRILLLKVAGFNLLMTLRLWSSRAKRSGSGVKQTLNFDLLKLAGDVESNPGPSRGHMTEYKPTVRLATRDDVPRAVRTLAAAFADYPATRHTVDPDRHIERVTELQELFLTRVGLDIGKVWVADDGAAVAVWTTPESVEAGAVFAEIGPRMAELSGSRLAAQQQMEGLLAPHRPKEPAWFLATVGVSPDHQGKGLGSAVVLPGVEAAERAGVPAFLETSAPRNLPFYERLGFTVTADVEVPEGPRTWCMTRKPGA
B3: 22131 (protein)
chain: MALPVTALLLPLALLLHAARPACEVQLLESGGGLIQPGGSLRLSCAASGFTFSSHAMTWVRQAPGKGLEWVSAISGSGDYTHYADSVKGRFTISRDNSKNTVYLQMNSLRAEDSAVYYCAKDEDGGSLLGHRGQGTLVTVSSGTGGGGSGGGGSGGGGSEFDIQMTQSPSSLSASVGDRVTITCKASDHINNWLAWYQQKPGQAPKLLIYGATTLETGVPSRFSGSGSGTDYTLTISSLQPEDFATYYCQQSWNTPWTFGQGTKLEIKRLEDLKNVFPPEVAVFEPSKAEIAHTQKATLVCLATGFYPDHVELSWWVNGKEVHSGVCTDPQPLKEQPALNDSRYCLSSRLRVSATFWQNPRNHFRCQVQFYGLSENDEWTQDRAKPVTQIVSAEAWGRADCGITSASYHQGVLSATILYEILLGKATLYAVLVSALVLMAMVKRKDSRGRAKRSGSGATNFSLLKQAGDVEENPGPTSATMDWIWRILFLVGAATGAHSGPQVQLQESGGGLAQAGGSLRLSCAASGRTFSMGWFRQAPGKEREFVAAITYSGGSPYYASSVRGRFTISRDNAKNTVYLQMNSLKPEDTAVYYCAANPTYGSDWNAENWGQGTQVTVSSGSGGGGSGGGGSGGGGSFEQVQLQQPGAELVKPGASVKMSCKASGYAFSSYWINWMKQKPGQGLEWIGQIYPGDGDTNYNGKFKGRATLTADTSSSTAYMQLSSLTSEDSAVYFCARSITTVVGCAMDYWGQGTSVTVSSTRIQNPDPAVYQLRDSKSSDKSVCLFTDFDSQTNVSQSKDSDVYITDKCVLDMRSMDFKSNSAVAWSNKSDFACANAFNNSIIPEDTFFPSSDVPCDVKLVEKSFETDTNLNFQNLSVIGFRILLLKVAGFNLLMTLRLWSSRAKRSGSGVKQTLNFDLLKLAGDVESNPGPSRGHMTEYKPTVRLATRDDVPRAVRTLAAAFADYPATRHTVDPDRHIERVTELQELFLTRVGLDIGKVWVADDGAAVAVWTTPESVEAGAVFAEIGPRMAELSGSRLAAQQQMEGLLAPHRPKEPAWFLATVGVSPDHQGKGLGSAVVLPGVEAAERAGVPAFLETSAPRNLPFYERLGFTVTADVEVPEGPRTWCMTRKPGA
B4: 22105 (protein)
chain: MALPVTALLLPLALLLHAARPDIQMTQSPSSLSASVGDRVTITCKASDHINNWLAWYQQKPGQAPKLLIYGATTLETGVPSRFSGSGSGTDYTLTISSLQPEDFATYYCQQSWNTPWTFGQGTKLEIKRLEDLKNVFPPEVAVFEPSEAEISHTQKATLVCLATGFYPDHVELSWWVNGKEVHSGVCTDPQPLKEQPALNDSRYCLSSRLRVSATFWQNPRNHFRCQVQFYGLSENDEWTQDRAKPVTQIVSAEAWGRADCGFTSESYQQGVLSATILYEILLGKATLYAVLVSALVLMAMVKRKDSRGRAKRSGSGATNFSLLKQAGDVEENPGPTSATMDWIWRILFLVGAATGAHSGPQVQLQESGGGLAQAGGSLRLSCAASGRTFSMGWFRQAPGKEREFVAAITYSGGSPYYASSVRGRFTISRDNAKNTVYLQMNSLKPEDTAVYYCAANPTYGSDWNAENWGQGTQVTVSSGSGGGGSGGGGSGGGGSFEQVQLQQPGAELVKPGASVKMSCKASGYAFSSYWINWMKQKPGQGLEWIGQIYPGDGDTNYNGKFKGRATLTADTSSSTAYMQLSSLTSEDSAVYFCARSITTVVGCAMDYWGQGTSVTVSSTRIQNPDPAVYQLRDSKSSDKSVCLFTDFDSQTNVSQSKDSDVYITDKCVLDMRSMDFKSNSAVAWSNKSDFACANAFNNSIIPEDTFFPSPESSCDVKLVEKSFETDTNLNFQNLSVIGFRILLLKVAGFNLLMTLRLWSSRAKRSGSGVKQTLNFDLLKLAGDVESNPGPSRGHMTEYKPTVRLATRDDVPRAVRTLAAAFADYPATRHTVDPDRHIERVTELQELFLTRVGLDIGKVWVADDGAAVAVWTTPESVEAGAVFAEIGPRMAELSGSRLAAQQQMEGLLAPHRPKEPAWFLATVGVSPDHQGKGLGSAVVLPGVEAAERAGVPAFLETSAPRNLPFYERLGFTVTADVEVPEGPRTWCMTRKPGA

Columns and labels:
Type in all cases: cell-based
RAJI-CD19-KO cells = experiment: JNG assay, co-culture with RAJI-CD19-KO cells; conditions: co-culture with Raji-CD19-KO
Summary of the method: (§1)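 Read-out is NFAT-driven GFP measured by flow cytometry after ~4–18 h co-culture of SAR-expressing JNG cells with target cells (E:T about 1:2). SARs were introduced by lentiviral spinfection and selected with puromycin or blasticidin when possible; scores (+/- to 5+ ≈ 5–50% GFP+) are relative to parental JNG cells.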

Nalm6 cells = experiment: JNG assay, co-culture with Nalm6 cells; conditions: co-culture with Nalm6
Summary of the method: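 SAR-JNG (lentiviral spinfection, drug-selected) + target cells, E:T ≈1:2, ≈4–18 h; FACS for GFP; positivity = %GFP+ over parental JNG; grades +/- to 5+ ≈ 5–50% GFP+.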

RAJI cells = experiment: JNG assay, co-culture with RAJI cells; conditions: JNG cells expressing construct, co-culture with Raji
Summary of the method: as §1

L363 cells = experiment: JNG assay, co-culture with L363 cells; conditions: co-culture with L363
Summary of the method: as §1

| Molecule | NFAT-GFP ASSAY: Raji-CD19-KO (RAJI-CD19-KO cells) | NFAT-GFP ASSAY: Nalm6 (Nalm6 cells) | NFAT-GFP ASSAY: Raji (RAJI cells) | NFAT-GFP ASSAY: L363 (L363 cells) |
| --- | --- | --- | --- | --- |
| B1 | 2+ (refer to approximately 5%, 10%, 20%, 30%, 40% and 50% GFP positive cells) | +/- (refer to approximately 5%, 10%, 20%, 30%, 40% and 50% GFP positive cells) |  |  |
| B2 | +/- (refer to approximately 5%, 10%, 20%, 30%, 40% and 50% GFP positive cells) | +/- (refer to approximately 5%, 10%, 20%, 30%, 40% and 50% GFP positive cells) | +/- (refer to approximately 5%, 10%, 20%, 30%, 40% and 50% GFP positive cells) |  |
| B3 | 5+ (refer to approximately 5%, 10%, 20%, 30%, 40% and 50% GFP positive cells) |  | 4+ (refer to approximately 5%, 10%, 20%, 30%, 40% and 50% GFP positive cells) | 5+ (refer to approximately 5%, 10%, 20%, 30%, 40% and 50% GFP positive cells) |
| B4 | 4+ (refer to approximately 5%, 10%, 20%, 30%, 40% and 50% GFP positive cells) | 5+ (refer to approximately 5%, 10%, 20%, 30%, 40% and 50% GFP positive cells) |  |  |
